The results in this text go back to article PMC4822050, “Hemi-methylated DNA opens a closed conformation of UHRF1 to facilitate its histone recognition” (Nature Communications, 2016).

Common to all, as to format: binding
For experiment [1], the target named is T1, TTD (residues 134–285) of UHRF1 (Homo sapiens, UniProt Q96T88).
T1 construct: TTD (residues 134–285); GST (N, cleaved yes); made in house; host or cells: E. coli BL21 (DE3)
T1 sequence (Q96T88 134-285): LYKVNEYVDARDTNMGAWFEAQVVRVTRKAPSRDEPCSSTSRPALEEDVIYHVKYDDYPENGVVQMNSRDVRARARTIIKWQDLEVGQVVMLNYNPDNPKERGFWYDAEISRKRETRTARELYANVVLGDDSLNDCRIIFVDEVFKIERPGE
Briefly: ITC, TTD titrated into Spacer variants and other UHRF1 fragments. The settings on record: TTD in syringe; for N: ITC stoichiometry; for ΔH / ΔS: ITC. As for the experimental part:
(§1) For competition ITC experiments: the indicated proteins were pre-incubated with competitive peptide, protein or hm-DNA (at 1:2 molar ratio if not specified) for 10 min followed by ITC measurements as described above. Proteins, DNA and peptides were prepared within ITC buffer containing 10 mM HEPES, pH 8.0, 100 mM NaCl. The data were fitted by software Origin 7.0. All ITC results were summarized in Supplementary Table 2 and raw data were shown in Supplementary Fig. 9.
In general terms: ITC needs no label: the signal is the heat of the interaction.

The target of experiment [2] is T2, Spacer (residues 587–674) of UHRF1 (Homo sapiens, UniProt Q96T88).
T2 construct: Spacer (residues 587–674); GST (N, cleaved yes); made in house; host or cells: E. coli BL21 (DE3)
T2 sequence (Q96T88 587-674): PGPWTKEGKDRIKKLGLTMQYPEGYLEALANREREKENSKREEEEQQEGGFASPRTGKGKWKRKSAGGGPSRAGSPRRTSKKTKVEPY
Kind of experiment: ITC, interaction of UHRF1 domains with the Spacer. The settings on record: for N: ITC stoichiometry. The protocol:
as §1

For experiment [3], the target named is FAM-12bp-HM-DNA. Briefly: Fluorescence polarization, 12-bp FAM-hm-DNA. The conditions noted are these: FP, 25 °C, 20 min; 20 mM HEPES pH 7.5, 175 mM NaCl, 8% glycerol, 1 mM DTT; triplicate; Fig. 5b and Supplementary Table 4. The protocol: A 6-carboxy-fluorescein (FAM)-labelled primer, 5′-CCATGCGCTGAC-3′, was annealed to a primer 5′-GTCAGXGCATGG-3′ (X=5-methyldeoxycytosine). The hemi-methylated double-strand DNA was used in both electrophoretic mobility-shift assay and FP assays. […] The samples were subjected to a 10% polyacrylamide gel electrophoresis and run in 0.5 × Tris-borate-EDTA buffer at 100 V for 1 h at 4 °C. The results were visualized on Tanon-5200 Chemiluminescent Imaging System (Tanon Science & Technology Co., Ltd).
FP measurements were performed at 25 °C on Synergy 4 Microplate Reader (BioTek). The 16-bp and 20-bp FAM-labelled hm-DNA (lower strand: 5′-GTGTCAGXGCATGGCC-3′ and 5′-CCGTGTCAGXGCATGGCCAT-3′, respectively. X=5-methyldeoxycytosine) were used in the FP experiment to test the effect of DNA length on the protein/DNA interaction. All experiments were performed in triplicate. The curves were fitted by GraphPad Prism 5. For salt concentration-dependent FP experiments, the reaction buffer contains 50 mM or 150 mM NaCl, respectively.
A general note: Fluorescence polarisation rises when a labelled molecule tumbles more slowly, as on binding a larger partner.

[4] abbreviates: ITC, 18 °C, Spacer in syringe, named protein in cell, 10 mM HEPES pH 8.0, 100 mM NaCl.
[5] abbreviates: ITC, Fig. 3e, wild-type or mutant TTD in syringe, Spacer in cell.

Residue numbers refer to the chain shown, from its start. In names and notes the source's numbering stands.

B1: SpacerK648D: mutation K648D of the Spacer (protein)
chain: T2 sequence (Q96T88 587-674) with K62D
modifications: left off: GST, end not stated, cleaved
notes: mutation K648D of the Spacer
In experiment [1], B1 showed an N of 0.659±0.0209, a ΔH of -8.45 ± 0.3659 kcal/mol and a ΔS of -5.07 cal/mol/deg.

B2: SpacerS639D: mutation S639D of the Spacer, negative control (protein)
chain: T2 sequence (Q96T88 587-674) with S53D
modifications: left off: GST, end not stated, cleaved
notes: mutation S639D of the Spacer, negative control
For the molecule B2, in experiment [1], the N is recorded as 1.03±0.0102, the ΔH is listed as -1.125E4±153.8 cal/mol and the ΔS is reported as -11.4 cal/mol/deg.

B3: SpacerR649A: mutation R649A of the Spacer (protein)
chain: T2 sequence (Q96T88 587-674) with R63A
modifications: left off: GST, end not stated, cleaved
notes: mutation R649A of the Spacer
On to B3, for which, in experiment [1], the N came to 1.06±0.0256, the ΔH was -8.277 ± 0.352 kcal/mol and the ΔS is on record as -7.04 cal/mol/deg.

B4: SpacerS651D: mutation S651D of the Spacer (protein)
chain: T2 sequence (Q96T88 587-674) with S65D
modifications: left off: GST, end not stated, cleaved
notes: mutation S651D of the Spacer
In experiment [1], B4 had an N of 0.998±0.0189 and a ΔS of -19.3 cal/mol/deg.

B5: SpacerS666D: mutation S666D of the Spacer, negative control (protein)
chain: T2 sequence (Q96T88 587-674) with S80D
modifications: left off: GST, end not stated, cleaved
notes: mutation S666D of the Spacer, negative control
In experiment [1], B5 returned an N of 1.08±0.0104, a ΔH of -1.219E4±159.8 cal/mol and a ΔS of -14.9 cal/mol/deg.

B6: TTD-PHDRR295,296DD: mutation R295D/R296D (within the Linker) of TTD–PHD (protein)
chain: LYKVNEYVDARDTNMGAWFEAQVVRVTRKAPSRDEPCSSTSRPALEEDVIYHVKYDDYPENGVVQMNSRDVRARARTIIKWQDLEVGQVVMLNYNPDNPKERGFWYDAEISRKRETRTARELYANVVLGDDSLNDCRIIFVDEVFKIERPGEGSPMVDNPMDDKSGPSCKHCKDDVNRLCRVCACHLCGGRQDPDKQLMCDECDMAFHIYCLDPPLSSVPSEDEWYCPECRND
modifications: left off: GST, end not stated, cleaved
notes: mutation R295D/R296D (within the Linker) of TTD–PHD
By Kd is commonly meant the concentration at which binding is half-saturated. In experiment [2] (Spacer in syringe), B6 yielded an N of 0.944±0.0158. For the same molecule, in experiment [2] (setting [4]), the Kd was 2690 nM. In experiment [2] (ITC, Spacer in syringe), this molecule yielded a ΔH of -1.399E4±290.7 cal/mol and a ΔS of -22.5 cal/mol/deg.

B7: Spacer∆665-669: internal deletion of the Spacer, residues 665–669 (protein)
chain: PGPWTKEGKDRIKKLGLTMQYPEGYLEALANREREKENSKREEEEQQEGGFASPRTGKGKWKRKSAGGGPSRAGSPRRKVEPY
modifications: left off: GST, end not stated, cleaved
B7: in experiment [1], the N came to 1.06±0.00978 and the ΔS is -12.9 cal/mol/deg.

B8: Spacer∆670-674: deletion of the Spacer, residues 670–674 (protein)
chain: B7 chain with K79T, V80S, E81K, P82K, Y83T
modifications: left off: GST, end not stated, cleaved
In experiment [1], B8 had an N of 1.1±0.0102 and a ΔS of -9.46 cal/mol/deg.

B9: SRA-Spacer-661: UHRF1 residues 414–661 (protein, UniProt Q96T88 414-661, looked up, fragment)
chain: PSNHYGPIPGIPVGTMWRFRVQVSESGVHRPHVAGIHGRSNDGAYSLVLAGGYEDDVDHGNFFTYTGSGGRDLSGNKRTAEQSCDQKLTNTNRALALNCFAPINDQEGAEAKDWRSGKPVRVVRNVKGGKNSKYAPAEGNRYDGIYKVVKYWPEKGKSGFLVWRYLLRRDDDEPGPWTKEGKDRIKKLGLTMQYPEGYLEALANREREKENSKREEEEQQEGGFASPRTGKGKWKRKSAGGGPSRAGS
On to B9, for which the dissociation constant (Kd) in experiment [3] came to 380 ± 60 nM.

B10: TTD: tandem Tudor domain of human UHRF1 (residues 134–285) (protein, UniProt Q96T88 134-285, looked up, fragment)
chain: T1 sequence (Q96T88 134-285)
modifications: tandem Tudor domain
B10 had a N in experiment [2] (Spacer in syringe) of 0.991±0.0134. This molecule also yielded a Kd in experiment [2] (setting [4]) of 1480 nM. For the same molecule, in experiment [2] (setting [5]), binding was characterised by a dissociation constant (Kd) of 1590 nM. Besides, in experiment [2] (ITC, Spacer in syringe), the ΔH is -1.614E4±297.4 cal/mol and the ΔS is on record as -28.7 cal/mol/deg. The “interaction between the Spacer and the named protein in the presence of H3K9me3” value in experiment [2] (ITC, molar ratio of TTD-PHD or TTD: H3K9me3=1:2) is given as “No detectable interaction”.

B11: TTDD142A,E153A: mutation D142A/E153A of the TTD (protein)
chain: T1 sequence (Q96T88 134-285) with D9A, E20A
modifications: left off: GST, end not stated, cleaved
notes: mutation D142A/E153A of the TTD
B11: the KD entry in experiment [2] (setting [5]) is recorded as “abolished”.

B12: Spacer ∆642-651: internal deletion of the Spacer, residues 642–651 (protein)
chain: PGPWTKEGKDRIKKLGLTMQYPEGYLEALANREREKENSKREEEEQQEGGFASPRAGGGPSRAGSPRRTSKKTKVEPY
modifications: left off: GST, end not stated, cleaved
In experiment [1], B12 had an N of 0.891±0.0733, a ΔH of -3.833 ± 0.4259 kcal/mol and a ΔS of 9.58 cal/mol/deg.

B13: Spacer∆650-654: internal deletion of the Spacer, residues 650–654 (protein)
chain: PGPWTKEGKDRIKKLGLTMQYPEGYLEALANREREKENSKREEEEQQEGGFASPRTGKGKWKRGPSRAGSPRRTSKKTKVEPY
modifications: left off: GST, end not stated, cleaved
In experiment [1], B13 displayed an N of 0.967±0.0122, a ΔH of -6.475 ± 0.1071 kcal/mol and a ΔS of 2.57 cal/mol/deg.

B14: Spacer∆655-659: internal deletion of the Spacer, residues 655–659 (protein)
chain: B13 chain with G64K, P65S, S66A, R67G, A68G
modifications: left off: GST, end not stated, cleaved
With B14, in experiment [1], the N was determined as 0.988±0.0147, the ΔH is -7.634 ± 0.1561 kcal/mol and the ΔS was -0.906 cal/mol/deg.

B15: Spacer∆660-664: internal deletion of the Spacer, residues 660–664 (protein)
chain: B7 chain with G74T, P76K, R77K, R78T
modifications: left off: GST, end not stated, cleaved
B15: in experiment [1], the N worked out at 1.01±0.00976 and the ΔS is reported as -10.2 cal/mol/deg.
